# Measurements published in patent EP4361176A1 (CHUGAI SEIYAKU KABUSHIKI KAISHA, dated 2024).
# T1: human FcγRIIa H extracellular domain (human, UniProt P12318 34-217)
# T1 construct: extracellular domain; Made by the method of WO2014104165; also called hFcγR IIa H; FcyRIIaH
# T1 sequence (looked up): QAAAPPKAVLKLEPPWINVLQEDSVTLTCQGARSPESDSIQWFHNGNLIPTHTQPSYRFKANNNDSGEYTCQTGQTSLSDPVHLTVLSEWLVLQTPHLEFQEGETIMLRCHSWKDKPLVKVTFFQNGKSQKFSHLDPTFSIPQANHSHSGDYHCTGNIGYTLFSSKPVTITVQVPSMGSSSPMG
# T2: human FcγRIIb extracellular domain (human, UniProt P31994 43-217)
# T2 construct: extracellular domain; Made by the method of WO2014104165; also called hFcγR IIb; FcyRIIb
# T2 sequence (looked up): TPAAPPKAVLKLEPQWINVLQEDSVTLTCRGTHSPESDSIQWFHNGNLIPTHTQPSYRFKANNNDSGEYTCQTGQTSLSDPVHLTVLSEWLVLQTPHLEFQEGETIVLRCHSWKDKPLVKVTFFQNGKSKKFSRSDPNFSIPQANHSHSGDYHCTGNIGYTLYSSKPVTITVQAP
# B1: 04H1208-G1m/04L1407-k0MT (antibody, human IgG1, kappa, V domains shown)
# VH: EVQLVESGGGLVKPGGSLRLSCAASGFTFSSKTMNWVRQAPGKGLEWVSSISTRSGYIYYARSVKGRFTISRDNAKNSLYLQMNSLRAEDTAVYYCARYGKREDMLWVFDYWGQGTLVTVSS
# VL: DIVMTQSPLSLPVTPGEPASISCDGPSTDVGDYNWVHWYQQKPGQAPRLLIYYTSSKPEGVPDRFSGSGSGTDFTLKISRVEAEDVGVYYCQTYAAPLGPTFGQGTKLEIKR
# B2: H240-G1d/L73-k_glycomab (antibody)
# chain 1: not shown
# chain 2: DIQMTQSPSSLSASVGDRVTITCRASQDIHKYIAWYQQKPGQAPRLLIQYTSTLQPGVPSRFSGSGSGTDYTFTISSLQPEDIATYYCLQYEQLRTFGGGTKVEIK
# modifications: fucose-deficient (afucosylated) Fc sugar chain
# B3: 04H1389-G1m/04L1305-k0MT (antibody, human IgG1, kappa)
# heavy: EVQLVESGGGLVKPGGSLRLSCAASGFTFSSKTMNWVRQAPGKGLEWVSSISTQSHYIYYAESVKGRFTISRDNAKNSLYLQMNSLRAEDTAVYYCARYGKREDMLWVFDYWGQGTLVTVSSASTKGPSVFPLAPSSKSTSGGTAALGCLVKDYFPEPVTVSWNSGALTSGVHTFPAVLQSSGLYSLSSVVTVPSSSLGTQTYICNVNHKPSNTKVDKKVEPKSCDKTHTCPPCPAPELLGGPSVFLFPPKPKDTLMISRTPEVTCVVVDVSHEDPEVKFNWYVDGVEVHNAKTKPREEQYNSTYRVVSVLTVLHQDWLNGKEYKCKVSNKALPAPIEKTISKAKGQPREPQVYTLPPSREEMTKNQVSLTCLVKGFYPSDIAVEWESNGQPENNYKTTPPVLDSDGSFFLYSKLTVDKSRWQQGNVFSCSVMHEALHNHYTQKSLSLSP
# light: DIVMTQSPLSLPVTPGEPASISCDGPSTGVGDYNYVHWYQQKPGQAPRLLIYFTSKKPSGVPDRFSGSGSGTDFTLKISRVEAEDVGVYYCQTYAAPLGPMFGQGTKLEIKRTVAAPSVFIFPPSDEQLKSGTASVVCLLNNFYPREAKVQWKVDNALQSGNSQESVTEQDSKDSTYSLSSTLTLSKADYEKHKVYACEVTHQGLSSPVTKSFNRGEC
# notes: Human IgG1 (G1m), human kappa
# What was measured:
# mCTLA4-His = biological target: T3, mCTLA4-His (mouse, UniProt P09793 36-161); test: SPR Biacore T200, 100 uM ATP
# T3 construct: Mouse CTLA4 extracellular region linked with a His-tag; also called mouse CTLA4; Mouse CTLA4
# [1] = biological target: T1, human FcγRIIa H extracellular domain; test: SPR (Biacore 8K+), captured antibody, 1:1 Langmuir model
# [2] = biological target: T2, human FcγRIIb extracellular domain; test: SPR; KD of G1d divided by KD of this antibody
# [3] = biological target: T1, human FcγRIIa H extracellular domain; test: SPR; KD of G1d divided by KD of this antibody
# [4] = biological target: T2, human FcγRIIb extracellular domain; test: SPR (Biacore 8K+), captured antibody, steady state affinity model
# [5] = biological target: T4, human CTLA4 (hCTLA4-His-BAP: human CTLA4 extracellular region with C-terminal His-tag and BAP-tag) (human); test: SPR (Biacore T200, 37C), antibody captured, human CTLA4 at 1000 nM, ATP 10 uM
# T4 construct: This tie is an inference
# [6] = biological target: T4, human CTLA4 (hCTLA4-His-BAP: human …); test: SPR (Biacore T200, 37C), antibody captured, human CTLA4 at 1000 nM, ATP 100 uM
# [7] = biological target: T4, human CTLA4 (hCTLA4-His-BAP: human …); test: SPR (Biacore T200, 37C), antibody captured, human CTLA4 at 1000 nM, no ATP
# [8] = biological target: T4, human CTLA4 (hCTLA4-His-BAP: human …); test: SPR (Biacore T200, 37C), antibody captured, human CTLA4 at 1000 nM, ATP 1 uM
binder,measurement,setting,value
B1,fold weaker binding to mouse CTLA4 than to human CTLA4,mCTLA4-His,~2 fold
B2,Kd,[1],999 nM
same,Relative value to KD between G1d and hFcgRs,[2],1.8
same,Relative value to KD between G1d and hFcgRs,[3],1.1
same,Kd,[4],5.65 µM
B3,Binding to Human CTLA4 (binding amount per unit amount of antibody),[5],0.154
same,Binding to Human CTLA4 (binding amount per unit amount of antibody),[6],0.151
same,Binding to Human CTLA4 (binding amount per unit amount of antibody),[7],0.03
same,Binding to Human CTLA4 (binding amount per unit amount of antibody),[8],0.12
